Where “and” joins values, the source holds several entries; their conditions need not be identical. Identical values can stand only once.
Legend:
[1] = biological target: T1, FLT3 (Fms Related Receptor Tyrosine Kinase 3) (human, UniProt P36888 27-993); assay: flow cytometry on REH cells, median fluorescence intensity against concentration, four-parameter fit, anti-His FITC detection
T1 construct: whole, on cells; The target is endogenous FLT3 on human leukemia cell lines; also called human FLT3; FLK2
Protocol: (§1) REH cells were incubated with varying concentrations (10⁻¹ to 10⁴ ng/mL) of the IgG1 or scFv molecules diluted in FACS buffer (hereinafter referred to simply as “buffer,” phosphate buffered saline (PBS) (Caisson Labs, no. PBL06)+2% BCS (GE Healthcare, no. SH30073.04)+1 mM EDTA (Invitrogen, no. 15575020)) in a final volume of 100 μL, in triplicate, for 30 minutes at 4° C. Cells were washed three times with buffer and incubated with secondary antibodies. IgG1 was detected with 1:200 goat anti-human Fc FITC (Jackson) secondary antibody and scFv was detected with anti-His FITC (1:200) secondary antibody. Secondary antibodies were incubated in 100 μL final volume in triplicate for 30 minutes at 4° C. Cells were washed once with buffer and resuspended in 200 uL buffer+1:100 7-AAD Viability Staining Solution (Biolegend, no. 420404), and analyzed by flow cytometry. Flow cytometry acquisition was performed with a Beckman Coulter CytoFLEX (Beckman Coulter), and analysis was performed with FlowJo (Treestar Inc, Ashland, OR). Plots show median fluorescence intensity of REH cells versus concentration of the primary antibody used. Variable slope (four parameters) curve was fit to the data and EC50 was used to compare binding affinities.

[2] = biological target: T1, FLT3 (Fms Related Receptor Tyrosine …); assay: flow cytometry on REH cells, anti-human IgG Fc Alexa Fluor 488 detection, with or without 10 nM FLT3L pre-incubation
Text: Cells were then stained with various concentrations of the chimeric monoclonal antibody prepared in flow buffer. Cells were washed five times with flow buffer and stained with anti-human IgG Fc antibody conjugated to Alexa Fluor 488 (Jackson Immunoresearch Laboratories, 109-545-008). Cells were stained with 7-AAD (7-AAD Viability Staining Solution, Biolegend 420404) followed by flow cytometry analysis.

[3] = biological target: T1, FLT3 (Fms Related Receptor Tyrosine …); assay: flow cytometry on REH cells, median fluorescence intensity against concentration, four-parameter fit, goat anti-human Fc FITC detection
Protocol: as §1

B1: his-tagged scFv, clone hum 1-18BA-v1 (SEQ ID NO: 4 with a His tag on the C terminus) (scFv)
scFv: DIQMTQSPSSLSASVGDRVTITCRASQEISGYLSWLQQKPGKAIKRLIYAASTLQSGVPSRFSGSRSGSDYTLTISSLQPEDFATYYCLQYASYPFTFGQGTKLEIKGGGGSGGGGSGGGSGGGGSQVTLKESGPTLVKPTQTLTLTCTFSGFSLSTSTMGVGWIRQPPGKALEWLAHILWNDSKRYNPSLKSRLTITKDTSKKQVVLTMTNMDPVDTATYYCARIVYYSTYVGYFDVWGQGTTVTVSS
notes: also called humanized anti-FLT3 scFv; scFv molecule; not shown: C-terminal His tag
EC50 [1]: 0.0854 µg/mL and 3.42 nM

B2: chimeric antibody 1-18BA (mouse VL and mouse VH, human IgG) (antibody, V domains shown)
VH: QVTLKESGPGILQPSQTLSLTCSFSGFSLSTSTMGVGWIRQPSGKGLEWLLHILWNDSKYYNPALKSRLTISKDTYNKQVFLKIANVDTADTATYYCARIVYYSTYVGYFDVWGAGTTVTVSS
VL: DIQMTQSPSSLSASLGERVSLTCRASQEISGYLSWLQQKPDGTIKRLIYAASTLHSGVPKRFSGSRSGSDYSLTISRLESEDVADYYCLQYASYPFTFGSGTKLEIK
notes: these appear to be the numbers of US 20190389955; also called chimeric anti-FLT3 antibody; cAb1977-10.0
binding result [2]: binds

B3: fully humanized anti-human FLT3 monoclonal IgG1, clone hum 1-18BA-v1 (antibody, V domains shown)
VH: QVTLKESGPTLVKPTQTLTLTCTFSGFSLSTSTMGVGWIRQPPGKALEWLAHILWNDSKRYNPSLKSRLTITKDTSKKQVVLTMTNMDPVDTATYYCARIVYYSTYVGYFDVWGQGTTVTVSS
VL: DIQMTQSPSSLSASVGDRVTITCRASQEISGYLSWLQQKPGKAIKRLIYAASTLQSGVPSRFSGSRSGSDYTLTISSLQPEDFATYYCLQYASYPFTFGQGTKLEIK
notes: also called humanized anti-FLT3 IgG; IgG1 molecule
EC50 [3]: 0.0621 µg/mL and 0.41 nM
